The chains are these.
B1: ALDH8A1 (parent)
chain: WSSRSPQERSRVLNQVADLLEQSL
B2: FAM164A (parent)
chain: YDPDYIQCPYCQRRFNENAADRHI
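Also: lentivirally expressed fusions sorted by FACS into six bins by GFP to DsRed ratio, PSI derived from sequencing read proportions per bin multiplied by bin number.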

Variants of B1 are the subject of one data set. Put plainly: protein stability index of a GFP-peptide fusion (GPS, HEK-293T) (PSI 1-6); higher = more stable. The following applies: c terminus: a fixed tail appended.
With WSSRSPQERSRVLNQVADLLDQSL [E21D], the protein stability index came to 2.58.
On the same count and under the same terms, as for WSSRSPQERSRVLNQVADLLAQSL [E21A], the figure is 2.13; as for WSSRSPQERSRVLNQVADLLPQSL [E21P], 3.24.
With WSSRSPQERSRVLNQVADLLGQSL [E21G], the protein stability index amounted to 2.24.
Same read-out and setting: under WSSRSPQERSRVLNQVADLLYQSL [E21Y] stands 1.71; under WSSRSPQERSRVLNQVADLLCQSL [E21C], 2.47; under WSSRSPQERSRVLNQVADLLQQSL [E21Q], 2.38.
WSSRSPQERSRVLNQVADLLNQSL [E21N]: the protein stability index is 2.52.
The same measure, in the same setting: under WSSRSPQERSRVLNQVADLLIQSL [E21I] stands 2.09.
Still for that read-out and setting: as for WSSRSPQERSRVLNQVADLLTQSL [E21T], the figure is 2.33; as for WSSRSPQERSRVLNQVADLLKQSL [E21K], 1.61; as for WSSRSPQERSRVLNQVADLLRQSL [E21R], 2.26.
Still for that read-out and setting: as for WSSRSPQERSRVLNQVADLLWQSL [E21W], the figure is 1.58; as for WSSRSPQERSRVLNQVADLLMQSL [E21M], 2.
Turning to WSSRSPQERSRVLNQVADLLEQDL [S23D], the protein stability index is 4.17.
On the same count and under the same terms, as for WSSRSPQERSRVLNQVADLLEQAL [S23A], the figure is 2.31; as for WSSRSPQERSRVLNQVADLLEQKL [S23K], 3.53.
Still for that read-out and setting: as for WSSRSPQERSRVLNQVADLLEQNL [S23N], the figure is 3.45; as for WSSRSPQERSRVLNQVADLLEQHL [S23H], 2.77.
On the same count and under the same terms, as for WSSRSPQERSRVLNQVADLLEQPL [S23P], the figure is 3.15; as for WSSRSPQERSRVLNQVADLLEQCL [S23C], 1.96; as for WSSRSPQERSRVLNQVADLLEQGL [S23G], 2.54.
Consider WSSRSPQERSRVLNQVADLLEQWL [S23W], for which the protein stability index turned out to be 1.94.
Turning to WSSRSPQERSRVLNQVADLLEQLL [S23L], the protein stability index worked out at 2.11.
Same read-out and setting: as for WSSRSPQERSRVLNQVADLLEQRL [S23R], the figure is 3.64; as for WSSRSPQERSRVLNQVADLLEQFL [S23F], 2.24.
Regarding WSSRSPQERSRVLNQVADLLEQVL [S23V], the protein stability index turned out to be 2.09.
Same read-out and setting: as for WSSRSPQERSRVLNQVADLLEQQL [S23Q], the figure is 3.39; as for WSSRSPQERSRVLNQVADLLEQTL [S23T], 1.94; as for WSSRSPQERSRVLNQVADLLEQIL [S23I], 2.51.
For the variant WSSRSPQERSRVLNQVADLLEQML [S23M], the protein stability index amounted to 2.3.
As to WSSRSPQERSRVLNQVADLLEQEL [S23E], the protein stability index is 3.39.
On the same count and under the same terms, under WSSRSPQERSRVLNQVADLLEQYL [S23Y] stands 1.72; under WSSRSPQERSRVLNQVADLLEQSP [L24P], 4.16.
On the same count and under the same terms, as for WSSRSPQERSRVLNQVADLLEQSG [L24G], the figure is 3.16; as for WSSRSPQERSRVLNQVADLLEQSY [L24Y], 1.86.
Still for that read-out and setting: under WSSRSPQERSRVLNQVADLLEQSN [L24N] stands 2.96; under WSSRSPQERSRVLNQVADLLEQSD [L24D], 4.17; under WSSRSPQERSRVLNQVADLLEQSV [L24V], 2.29.
On to WSSRSPQERSRVLNQVADLLEQSR [L24R], for which the protein stability index stood at 3.49.
Turning to WSSRSPQERSRVLNQVADLLEQSA [L24A], the protein stability index was determined as 2.88.
Same read-out and setting: under WSSRSPQERSRVLNQVADLLEQST [L24T] stands 3.34; under WSSRSPQERSRVLNQVADLLEQSC [L24C], 2.9.
With WSSRSPQERSRVLNQVADLLEQSH [L24H], the protein stability index amounted to 3.96.
Still for that read-out and setting: under WSSRSPQERSRVLNQVADLLEQSF [L24F] stands 2.03; under WSSRSPQERSRVLNQVADLLEQSQ [L24Q], 3.4; under WSSRSPQERSRVLNQVADLLEQSM [L24M], 2.86.
For WSSRSPQERSRVLNQVADLLEQSS [L24S], the protein stability index was 3.61.
As for WSSRSPQERSRVLNQVADLLEQSW [L24W], the protein stability index came to 2.19.
WSSRSPQERSRVLNQVADLLEQSE [L24E]: the protein stability index was found to be 3.59.
Still for that read-out and setting: under WSSRSPQERSRVLNQVADLLEQSK [L24K] stands 3.94; under WSSRSPQERSRVLNQVADLLEQSI [L24I], 1.76.
For the variant WSSRSPQERSRVLNQVADWLEQSL [L19W], the protein stability index turned out to be 2.24.
On the same count and under the same terms, under WSSRSPQERSRVLNQVADRLEQSL [L19R] stands 3.98.
On the same count and under the same terms, under WSSRSPQERSRVLNQVADCLEQSL [L19C] stands 3.14.
The same measure, in the same setting: as for WSSRSPQERSRVLNQVADFLEQSL [L19F], the figure is 2.23; as for WSSRSPQERSRVLNQVADGLEQSL [L19G], 4.16; as for WSSRSPQERSRVLNQVADYLEQSL [L19Y], 3.15.
Consider WSSRSPQERSRVLNQVADMLEQSL [L19M], for which the protein stability index was 2.52.
On the same count and under the same terms, as for WSSRSPQERSRVLNQVADKLEQSL [L19K], the figure is 3.79.
The same measure, in the same setting: as for WSSRSPQERSRVLNQVADSLEQSL [L19S], the figure is 4.14; as for WSSRSPQERSRVLNQVADALEQSL [L19A], 3.18; as for WSSRSPQERSRVLNQVADQLEQSL [L19Q], 4.19.
Same read-out and setting: as for WSSRSPQERSRVLNQVADILEQSL [L19I], the figure is 2.31; as for WSSRSPQERSRVLNQVADHLEQSL [L19H], 3.97; as for WSSRSPQERSRVLNQVADDLEQSL [L19D], 3.72.
WSSRSPQERSRVLNQVADVLEQSL [L19V]: the protein stability index worked out at 3.07.
Still for that read-out and setting: under WSSRSPQERSRVLNQVADPLEQSL [L19P] stands 4.63; under WSSRSPQERSRVLNQVADTLEQSL [L19T], 3.74.
The same measure, in the same setting: under WSSRSPQERSRVLNQVADELEQSL [L19E] stands 4.4.
As to WSSRSPQERSRVLNQVADNLEQSL [L19N], the protein stability index stood at 4.23.

Another data set covers variants of B2. Described as above. The following applies: c terminus: a fixed tail appended.
Consider YDPDYIQCPYCQRRFNENAADREI [H23E], for which the protein stability index was 5.08.
For YDPDYIQCKYCQRRFNENAADRHI [P9K], the protein stability index stood at 2.58.
Same read-out and setting: as for YDPDYIQCPYCQRRGNENAADRHI [F15G], the figure is 2.83; as for YDPDYIQCPYCHRRFNENAADRHI [Q12H], 4.93; as for YDPDYIQCPYCPRRFNENAADRHI [Q12P], 2.64.
On to YDPDYIQCPYCIRRFNENAADRHI [Q12I], for which the protein stability index was 2.52.
On the same count and under the same terms, as for YDADYIQCPYCQRRFNENAADRHI [P3A], the figure is 4.57; as for YDYDYIQCPYCQRRFNENAADRHI [P3Y], 4.24; as for YDPDYIQCPYCQRRFNENAAVRHI [D21V], 4.25.
On the same count and under the same terms, as for YDPDYIQHPYCQRRFNENAADRHI [C8H], the figure is 3.46.
Still for that read-out and setting: as for YDPDYIQCPYEQRRFNENAADRHI [C11E], the figure is 4.23; as for IDPDYIQCPYCQRRFNENAADRHI [Y1I], 4.72; as for YDPDYNQCPYCQRRFNENAADRHI [I6N], 3.55.
As for YDPDYIQCPYCQRRFKENAADRHI [N16K], the protein stability index came out at 4.8.
Same read-out and setting: as for YGPDYIQCPYCQRRFNENAADRHI [D2G], the figure is 3.96; as for YMPDYIQCPYCQRRFNENAADRHI [D2M], 3.49.
Still for that read-out and setting: under YDPDPIQCPYCQRRFNENAADRHI [Y5P] stands 3.84; under YDPDYIQCPACQRRFNENAADRHI [Y10A], 4.5; under YDPDYIQCPHCQRRFNENAADRHI [Y10H], 3.6.
Still for that read-out and setting: as for YDPDYIQCPPCQRRFNENAADRHI [Y10P], the figure is 3.72; as for YDPDYIQCPYCQRRFNENVADRHI [A19V], 3.82; as for YDPDYIQCPYCQRRFNENDADRHI [A19D], 4.47.
As to YDPCYIQCPYCQRRFNENAADRHI [D4C], the protein stability index was found to be 3.48.

These data come from the supplement of paper PMC10567573.
